The target in assay [1] is ΔDII-PfAMA1. Briefly: Isothermal Titration Calorimetry, ΔDII-PfAMA1. It is filed as binding, Plasmodium falciparum. As to conditions: 25°C; ΔDII-PfAMA1 10 μM, PfRON2D3-TRX 110 μM; 20 mM Hepes pH 7.5, 150 mM NaCl; average of two experiments with standard deviation; read-out: ITC Kd. On the procedure:
(§1) Purified PfAMA1, ΔDII-PfAMA1, and PfRON2D3-TRX were dialyzed against ITC buffer (20 mM Hepes pH 7.5, 150 mM NaCl) at 4°C. All ITC experiments were carried out at 25°C on a MicroCal iTC200 instrument. The sample cell contained PfAMA1 or ΔDII-PfAMA1 (10 μM), and PfRON2D3-TRX (110 μM) was added in 17 injections of 2.2 μL each. […] Data were processed using Origin software (MicroCal) and the dissociation constants (Kd) were determined using a one binding site model.
In general terms: ITC needs no label: the signal is the heat of the interaction.

In assay [2] the target is PfAMA1. As to conditions: Room temp; ref [23]; read-out: SPR Kd; cited from earlier work. The source says:
Table 2 Comparison of equilibrium dissociation constants (Kd) of complexes. | column: SPRKd (nM) / Room temp

Assay [3] deals with T1, PfAMA1 (Plasmodium falciparum, UniProt Q7KQK5).
T1 construct: (residues 104–438); hexa-histidine (cleaved yes); made in house; host or cells: insect cells (modified pAcGP67B vector)
T1 sequence (Q7KQK5 104-438): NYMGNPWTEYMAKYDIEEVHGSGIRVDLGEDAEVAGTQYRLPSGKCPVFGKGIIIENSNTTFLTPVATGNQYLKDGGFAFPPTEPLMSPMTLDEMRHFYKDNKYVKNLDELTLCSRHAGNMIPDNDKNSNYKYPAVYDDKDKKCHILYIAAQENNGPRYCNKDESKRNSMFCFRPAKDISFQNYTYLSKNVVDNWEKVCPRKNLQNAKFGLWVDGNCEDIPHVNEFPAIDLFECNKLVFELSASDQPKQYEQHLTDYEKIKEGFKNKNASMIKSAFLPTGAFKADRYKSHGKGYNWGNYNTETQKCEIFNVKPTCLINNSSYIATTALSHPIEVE
Briefly: Isothermal Titration Calorimetry, PfAMA1. The class given is binding. To be noted: ITC, 25°C; which AMA1 construct not stated. On the procedure: as §1

The target in assay [4] is T2, F*PfRON2sp1 (39 aa) [2021-2059], fluorescein-labeled PfRON2sp1 peptide (Plasmodium falciparum, 5-FAM (5-carboxyfluorescein) on the N-terminus; disulfide cyclized at the two cysteine residues).
T2 construct: Rhoptry Neck Protein 2 (RON2) of Plasmodium falciparum, residues 2021-2059; also called labeled peptide; labeled probe; source: synthetic peptide, bought: Kinexus (purity ≥ 95%)
T2 peptide: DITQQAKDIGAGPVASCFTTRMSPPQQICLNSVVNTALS
Briefly: fluorescence polarisation; anisotropy kinetics at 25°C; association: 10 nM labeled probe with 50, 100, 200 nM protein; dissociation: 10 nM preformed complex challenged with 2500 or 5000 nM unlabeled PfRON2sp1; global fit to a one-intermediate model; PBS pH 7.4, at least 0.1% BSA. As to conditions: both partners purified.

Assay [5] concerns the target T2, F*PfRON2sp1 (39 aa) [2021-2059], …. Briefly: fluorescence polarisation; anisotropy kinetics at 20°C; association: 10 nM labeled probe with 50, 100, 200 nM protein; dissociation: 10 nM preformed complex challenged with 2500 or 5000 nM unlabeled PfRON2sp1; global fit to a one-intermediate model; PBS pH 7.4, at least 0.1% BSA. As to conditions: both partners purified. (In fluorescence polarisation assays a small probe gives low polarisation when free and higher when bound to something large.)

Assay [6] has the same target. As to the kind of experiment: fluorescence polarisation; anisotropy kinetics at 25°C; association: 10 nM labeled probe with 50, 100, 200 nM protein; dissociation: 10 nM preformed complex challenged with 2500 or 5000 nM unlabeled PfRON2sp1; global fit to a one-intermediate model; PBS pH 7.4, at least 0.1% BSA. As to conditions: both partners purified.
Assay [7] shares this target. Briefly: fluorescence polarisation; anisotropy kinetics at 30°C; association: 10 nM labeled probe with 50, 100, 200 nM protein; dissociation: 10 nM preformed complex challenged with 2500 or 5000 nM unlabeled PfRON2sp1; global fit to a one-intermediate model; PBS pH 7.4, at least 0.1% BSA. As to conditions: both partners purified.
The target is the same in assay [8]. Briefly: fluorescence polarisation; anisotropy kinetics at 25°C; association: 10 nM labeled probe with 50, 100, 200 nM protein; dissociation: 10 nM preformed complex challenged with 2500 or 5000 nM unlabeled PfRON2sp1; global fit to a one-intermediate model; PBS pH 7.4, at least 0.1% BSA. As to conditions: both partners purified.

As a reminder, the Kd is the free concentration of one partner at which half of the binding sites on the other are occupied at equilibrium, for simple one-to-one binding. Regarding “PfRON2D3: thioredoxin fusion of PfRON2D3 (Asp2021 to Ser2059) produced in E. coli BL21 cells”, the Kd in assay [1] is 92.6 ± 6.4 nM; in assay [2], 20.3 ± 6.3 nM.
For “TRX: thioredoxin, injected as a negative control in ITC”, the “binding of TRX negative control” value in assay [3] is listed as “no detectable binding”.

B1: PfAMA1 (DI-DII of Plasmodium falciparum Apical Membrane Antigen 1, 3D7, residues 104-438) (domain or fragment)
chain: NYMGNPWTEYMAKYDIEEVHGSGIRVDLGEDAEVAGTQYRLPSGKCPVFGKGIIIENSNTTFLTPVATGNQYLKDGGFAFPPTEPLMSPMTLDEMRHFYKDNKYVKNLDELTLCSRHAGNMIPDNDKNSNYKYPAVYDDKDKKCHILYIAAQENNGPRYCNKDESKRNSMFCFRPAKDISFQNYTYLSKNVVDNWEKVCPRKNLQNAKFGLWVDGNCEDIPHVNEFPAIDLFECNKLVFELSASDQPKQYEQHLTDYEKIKEGFKNKNASMIKSAFLPTGAFKADRYKSHGKGYNWGNYNTETQKCEIFNVKPTCLINNSSYIATTALSHPIEVE
notes: codon-optimized synthetic gene; also called native PfAMA1; PfAMA1 DI-DII construct
Regarding B1, the “dH of step 1 (formation of the intermediate)” value in assay [4] is -0.67 kcal/mol. The figures for the “complex half-life (calculated from the one-intermediate model)” value in assay [5], in assay [6] and in assay [7] were 28.8 min, 16 min and 9.07 min, respectively. The “complex half-life (experimental)” value in assay [5] is 27.3 min; in assay [6], 15 min; in assay [7] it was 9.23 min. The “dH (overall, summation of the transition states from the kinetic fit)” value in assay [8] was -11.6 kcal/mol.
